Assay results as given in publication PMC7271239, “Structural and catalytic analysis of two diverse uridine phosphorylases in Phytophthora capsici” (Scientific Reports, 2020).

Legend:
PcUP1 = molecular target: T1, PcUP1 (Phytophthora capsici, UniProt A0A410UCT3); assay: X-ray crystal structure, […] Å; format: binding; conditions: with 2'-deoxyuridine (also with thymidine, 6K8P); phosphate site; crystals grown in phosphate
T1 construct: gene up; homodimer, active site at the dimer interface (His19 and Arg59 from the neighbouring monomer)
T1 sequence (A0A410UCT3 1-296): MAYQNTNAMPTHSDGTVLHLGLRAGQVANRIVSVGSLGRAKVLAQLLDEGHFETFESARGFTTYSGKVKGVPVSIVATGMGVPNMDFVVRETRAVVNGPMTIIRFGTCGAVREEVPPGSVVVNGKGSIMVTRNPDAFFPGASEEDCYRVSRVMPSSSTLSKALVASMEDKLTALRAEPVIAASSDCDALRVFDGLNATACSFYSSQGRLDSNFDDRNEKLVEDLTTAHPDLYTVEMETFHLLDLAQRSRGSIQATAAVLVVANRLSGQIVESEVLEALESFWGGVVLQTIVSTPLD

[1] = substrate: O=c1ccn([C@@H]2O[C@H](CO)[C@@H](O)[C@H]2O)c(=O)[nH]1; assay: HPLC of uracil formed, Michaelis-Menten fit; format: biochemical, Phytophthora capsici; conditions: phosphorolysis, uridine 0.25-5 mM, 10 mM Na2HPO4, pH 7.5, 25 °C, kcat assumes Et = 2

`O=P(O)(O)O` [phosphate] was tested. Which “X-ray crystal structure, 2.1 Å” value (PcUP1) did it give?
The value was “Arg59 is an important residue in the phosphate-bonding pocket, forming two hydrogen bonds”.

B1: PcUP1 (Phytophthora capsici) (protein)
chain: T1 sequence (A0A410UCT3 1-296)
notes: homodimer, active site at the dimer interface (His19 and Arg59 from the neighbouring monomer)
For B1, which Km [1] is on record?
The Km was 6.96 ± 1.52 mM.

What about the kcat [1] of the same molecule?
Its kcat is 982 ± 152 s⁻¹.

B2: PcUP2 (Phytophthora capsici) (protein)
chain: MAPNMDAVADATAQVHVRNSHILEMHSDVLFHIGLTCSQEERQQVANTFGDVKFFITGGSAERMTHFAQSVAKELGITTPYGYQLAPIGSTSRYTLFKVGPVLVANHGIGMPSISILLHEVTKLLEYAGAHGATYIRMGTSGGIGVEPGTVVITSEGVNNKLESVDEVAVLGSTVRRPSICSPEVREEIITAAKEVGLPYAVGKTLSCNDFYEGQGRLDGAICEYTLEDKMAFLQKLADAGVRNIEMEARLMAGFCHKLNIPVAVVCVTLLNRLNGDQVLSSHETLQDFERRPGAVLLHYIKSKVNASA
How did the Km [1] turn out when B2 was run?
Its Km is 7.55 ± 0.6 mM.

What about the kcat [1] of the same molecule?
The kcat was 1188 ± 90 s⁻¹.
